For 22 molecules, Kd results are on record in PMC10308901, “In vitro and ex vivo proteomics of Mycobacterium marinum biofilms and the development of biofilm-binding synthetic nanobodies” (mSystems, 2023).

The target of assay [1] is T1, Mycobacterium marinum GroEL1, recombinant (Mycobacterium marinum, UniProt B2HD10 1-539).
T1 construct: also called Mmr GroEL1
The experiment in a line: BLI. To be noted: both partners purified.

Assay [2] concerns the target T2, Mycobacterium marinum GroEL2, recombinant, biotinylated AVI-tagged form (Mycobacterium marinum, UniProt B2HQP9 1-541).
T2 construct: also called Mmr GroEL2; biotinylated GroEL protein
The experiment in a line: BLI. To be noted: both partners purified.

Positions count from the first letter of the chain named.

B1: GroEL1 sybody number 31 (VHH)
VHH: QVQLVESGGGSVQAGGSLRLSCAASGTIYKIYYLGWFRQAPGKEREGVAALNTFSGGTYYADSVKGRFTVSLDNAKNTVYLQMNSLKPEDTALYYCAAAYDMEGYAWPLYWWHYEYWGQGTQVTVSA
notes: also called GroEL1_SB31; not shown: Myc, C-terminal, kept; His6, C-terminal, kept
By Kd is commonly meant the equilibrium constant for the complex coming apart. As for B1, in assay [1], the Kd was roughly 92 nM.

B2: GroEL2 sybody number 2 (VHH)
VHH: QVQLVESGGGLVQAGGSLRLSCAASGFPVSSSTMTWYRQAPGKEREWVAAIDSVGNETYYADSVKGRFTISRDNAKNTVYLQMNSLKPEDTAVYYCAVFVGSYYGQGTQVTVSA
notes: not shown: Myc, C-terminal, kept; His6, C-terminal, kept
In the case of B2, the Kd in assay [2] is roughly 157 nM.

B3: GroEL2 sybody number 10 (VHH)
VHH: QVQLVESGGGLVQAGGSLRLSCAASGFPVKHWYMHWYRQAPGKEREWVAAIQSTGSYTAYADSVKGRFTISRDNAKNTVYLQMNSLKPEDTAVYYCNVKEYGFYHASYDYWGQGTQVTVSA
notes: as for B2
Take B3: the Kd in assay [2] is roughly 193 nM.

B4: GroEL1 sybody number 9 (VHH)
VHH: QVQLVESGGGLVQAGGSLRLSCAASGLPVWQQGMTWYRQAPGKEREWVAAIDSVGAQTYYADSVKGRFTISRDNAKNTVYLQMNSLKPEDTAVYYCAVNVGARYIGQGTQVTVSA
notes: as for B2
As to B4, the Kd in assay [1] was roughly 64 nM.

B5: GroEL1 sybody number 18 (VHH)
VHH: QVQLVESGGGLVQAGGSLRLSCAASGFPVKTKHMYWYRQAPGKEREWVAAITSIGMITAYADSVKGRFTISRDNAKNTVYLQMNSLKPEDTAVYYCNVKDWGTNRQAYDYWGQGTQVTVSA
notes: as for B2
Take B5: the Kd in assay [1] was roughly 22 nM.

B6: GroEL2 sybody number 32 (VHH)
VHH: QVQLVESGGGLVQAGGSLRLSCAASGFPVVSQFMEWHRQAPGKEREWVAAIDSTGYSTFYADSVKGRFTISRDNAKNTVYLQMNSLKPEDTAVYYCNVKDAGEGQEQYDYWGQGTQVTVSA
notes: as for B2
B6: in assay [2], the Kd was roughly 153 nM.

B7: GroEL2 sybody number 16 (VHH)
VHH: QVQLVESGGGLVQAGGSLRLSCAASGFPVSSSTMTWYRQAPGKEREWVAAIESWGAYTWYADSVKGRFTISRDNAKNTVYLQMNSLKPEDTAVYYCNVKDYDGVADVIYDYWGQGTQVTVSA
notes: as for B2
Turning to B7, the Kd in assay [2] was roughly 15 nM.

B8: GroEL1 sybody number 1 (VHH)
VHH: QVQLVESGGGLVQAGGSLRLSCAASGFPVEQRQMYWYRQAPGKEREWVAAIQSYGKRTKYADSVKGRFTISRDNAKNTVYLQMNSLKPEDTAVYYCVVYVGGGYKGQGTQVTVSA
notes: as for B2
As to B8, the Kd in assay [1] was roughly 130 nM.

B9: GroEL2 sybody number 19 (VHH)
VHH: QVQLVESGGGLVQAGGSLRLSCAASGFPVEWLEMAWYRQAPGKEREWVAAIYSYGMETEYADSVKGRFTISRDNAKNTVYLQMNSLKPEDTAVYYCNVKDGGHAAWWYDYWGQGTQVTVSA
notes: as for B2
B9: the Kd in assay [2] was roughly 366 nM.

B10: GroEL2 sybody number 11 (VHH)
VHH: QVQLVESGGGLVQAGGSLRLSCAASGFPVDSAYMWWYRQAPGKEREWVAAIESNGEYTFYADSVKGRFTISRDNAKNTVYLQMNSLKPEDTAVYYCNVKDTGAHHSYYDYWGQGTQVTVSA
notes: as for B2
With B10, the Kd in assay [2] is roughly 271 nM.

B11: GroEL2 sybody number 27 (VHH)
VHH: B10 VHH with D30W, S31K, E56A, A103S, H104D, H105S, S106E, Y107N
notes: as for B2
With B11, the Kd in assay [2] was roughly 101 nM.

B12: GroEL2 sybody number 8 (VHH)
VHH: QVQLVESGGGLVQAGGSLRLSCAASGFPVYMSWMYWYRQAPGKEREWVAAIMSEGAGTWYADSVKGRFTISRDNAKNTVYLQMNSLKPEDTAVYYCNVKDTGSFHAQYDYWGQGTQVTVSA
notes: as for B2
Consider B12, for which, in assay [2], the dissociation constant (Kd) is roughly 13 nM.

B13: GroEL2 sybody number 7 (VHH)
VHH: B12 VHH with Y30N, M31D, S32A, E54M, A56F, T101R, S103K, F104E, A106F, Q107S
notes: as for B2
With B13, the Kd in assay [2] is roughly 100 nM.

B14: GroEL2 sybody number 33 (VHH)
VHH: B12 VHH with M31Q, S32H, E54Q, K65R, T101L, S103K, F104A, H105E, A106Y, Q107N
notes: as for B2
On to B14, for which the dissociation constant (Kd) in assay [2] was roughly 244 nM.

B15: GroEL2 sybody number 22 (VHH)
VHH: B12 VHH with M31H, E54D, A56H, F104S, H105T, A106T, Q107I
notes: as for B2
Turning to B15, the Kd in assay [2] was roughly 507 nM.

B16: GroEL2 sybody number 28 (VHH)
VHH: QVQLVESGGGLVQAGGSLRLSCAASGFPVDAYWMYWYRQAPGKEREWVAAIMSSGHGTWYADSVKGRFTISRDNAKNTVYLQMNSLKPEDTAVYSCNVKDKGAQAAWYDYWGQGTQVTVSA
notes: as for B2
For the molecule B16, the Kd in assay [2] is roughly 35 nM.

B17: GroEL2 sybody number 9 (VHH)
VHH: B12 VHH with M31Q, E54D, A56S, T101F, S103H, F104S, H105R, A106S, Q107R
notes: also called GroEL2_SB9; not shown: Myc, C-terminal, kept; His6, C-terminal, kept
As for B17, the Kd in assay [2] was roughly 277 nM.

B18: GroEL2 sybody number 31 (VHH)
VHH: B12 VHH with Y30W, S32E, A56D, T101F, S103Y, F104N, H105N, A106N, Q107Y
notes: as for B2
Consider B18, for which the Kd in assay [2] is roughly 66 nM.

B19: GroEL1 sybody number 12 (VHH)
VHH: QVQLVESGGGLVQAGGSLRLSCAASGFPVTQAWMEWYRQAPGKEREWVAAIFSHGGGTFYADSVKGRFTISRDNAKNTVYLQMNSLKPEDTAVYYCNVKDTGERDNWYDYWGQGTQVTVSA
notes: as for B2
In the case of B19, the Kd in assay [1] is roughly 14 nM.

B20: GroEL1 sybody number 5 (VHH)
VHH: QVQLVESGGGLVQAGGSLRLSCAASGFPVEHKQMRWYRQAPGKEREWVAAIESSGQYTIYADSVKGRFTISRDNAKNTVYLQMNSLKPEDTAVYYCFVGVGAGYYGQGTQVTVSA
notes: as for B2
Take B20: the Kd in assay [1] is roughly 127 nM.

B21: GroEL2 sybody number 1 (VHH)
VHH: QVQLVESGGGLVQAGGSLRLSCAASGFPVAITYMHWYRQAPGKEREWVAAISSTGKTTWYADSVKGRFTISRDNAKNTVYLQMNSLKPEDTAVYYCLVEVGHYYKGQGTQVTVSA
notes: as for B2
Take B21: the Kd in assay [2] was roughly 591 nM.

B22: GroEL2 sybody number 3 (VHH)
VHH: QVQLVESGGGLVQAGGSLRLSCAASGFPVAYWEMVWYRQAPGKEREWVAAIRSTGWKTVYADSVKGRFTISRDNAKNTVYLQMNSLKPEDTAVYYCTAVYVGVHYKGQGTQVTVSA
notes: also called GroEL2_SB3; not shown: Myc, C-terminal, kept; His6, C-terminal, kept
With B22, the Kd in assay [2] is roughly 18 nM.
